The data set deals with the molecule itself. The data set can be described thus: atomic force microscopy; alternating contact mode on DOPC/DOPS (1:1) supported lipid bilayers on mica, 10 mM TRIS pH 7.4, 140 mM NaCl, 2 mM Ca2+; 40 nM ANXA4 added with 40 nM ANXA1-GFP or ANXA2-GFP; 250 nm x 250 nm scans of the lower (ANXA4) domains, Fourier transform.

The source of these data is publication PMC9800579, “Interplay of membrane crosslinking and curvature induction by annexins” (Scientific Reports, 2022).

B1: annexin A4 (natural protein, UniProt P09525 1-319, looked up)
chain: MATKGGTVKAASGFNAMEDAQTLRKAMKGLGTDEDAIISVLAYRNTAQRQEIRTAYKSTIGRDLIDDLKSELSGNFEQVIVGMMTPTVLYDVQELRRAMKGAGTDEGCLIEILASRTPEEIRRISQTYQQQYGRSLEDDIRSDTSFMFQRVLVSLSAGGRDEGNYLDDALVRQDAQDLYEAGEKKWGTDEVKFLTVLCSRNRNHLLHVFDEYKRISQKDIEQSIKSETSGSFEDALLAIVKCMRNKSAYFAEKLYKSMKGLGTDDNTLIRVMVSRAEIDMLDIRAHFKRLYGKSLYSFIKGDTSGDYRKVLLVLCGGDD
notes: annexin A4 (ANXA4), unlabelled recombinant protein from a PCR-amplified cDNA in pETM11-SUMO3; the introduction gives 320 amino acids for ANXA4 (cited); also called ANXA4; recombinant ANXA4; source: E. coli BL21 (DE3), purified (Ni-NTA IMAC, Superdex 200 SEC); not shown: 6xHis, N-terminal, cleaved; SUMO3 domain, N-terminal, cleaved
On to B1, for which the “stoichiometry N” value was 3.

Usually stoichiometry N stands for a count of units in the complex or per binding partner.
